The values that follow come from US11203743B2, “Method for producing long-chain glycosylated genistein” (Jiangnan University, priority 2019, dated 2021).

Residue numbers refer to the chain shown, from its start. In names and notes the source's numbering stands.

The conditions of data set [1]: relative to genistein; cited from earlier work.
Data set [2] in a line: Effect of reaction pH on the yield of long-chain glycosylated genistein. It is filed as biochemical. The method, then: On the basis of Example 2, the mutant A156V/L174P/A166Y with the highest specificity to long-chain glycosylated genistein products was selected, the reaction temperature was controlled to be 50° C., and the reaction pH was changed into 4, 5, 6, 7 and 8 separately.
(§1) With reference to Example 2, the molar content of short-chain glycosylated genistein (here the short-chain glycosylated genistein was a mixture of monoglycosylated genistein, diglycosylated genistein and triglycosylated genistein) and long-chain glycosylated genistein (here the long-chain glycosylated genistein was a mixture of tetraglycosylated genistein, pentaglycosylated genistein and hexaglycosylated genistein) in a reaction solution was detected by HPLC, the ratio (%) of the molar content of short-chain glycosylated genistein and long-chain glycosylated genistein in the reaction solution to the molar content of total glycosylated genistein in the reaction solution and the content (g/L) of short-chain glycosylated genistein and long-chain glycosylated genistein in the reaction solution were calculated, and detection results were shown in Table 5 and FIG. 2.

Data set [3] in a line: Specificity of different cyclodextrin glucosyltransferases to glycosylated genistein products (maltodextrin donor, genistein receptor, HPLC). It is filed as biochemical. As to conditions: for content of long-chain glycosylated genistein in the reaction solution / content of short-chain glycosylated genistein in the reaction solution / ratio of the molar content of long-chain glycosylated genistein to the molar content of total glycosylated genistein in the reaction solution / ratio of the molar content of short-chain glycosylated genistein to the molar content of total glycosylated genistein in the reaction solution: 40° C., pH 6.5, 120 rpm, 20-24 hours. Here is the method:
Genistein (purchased from Sigma) was dissolved in dimethyl sulfoxide (DMSO) to prepare a genistein solution with a final concentration of 7.5 g/L; maltodextrin (purchased from Shanghai Sangon Biotech Co., Ltd.) was dissolved in a PBS buffer (50 mM, pH 6.5) to prepare a maltodextrin solution with a final concentration of 40 g/L; the freeze-fried pure enzymes of the mutants A156V/L174P, A156V/L174P/166Y, A156V/L174P/A166V, A156V/L174P/A166G, A156V/L174P/A166K, A156S, A156L and L174M obtained in Example 1 were dissolved in a PBS buffer (50 mM, pH 6.5) separately to prepare a CGTase enzyme solution with a final concentration of 15 U/L; 300 μL of the genistein solution, 500 μL of the maltodextrin solution and 200 μL of the CGTase enzyme solution were taken separately, mixed in a 2 mL vial with a lid and placed in a shaker for slow shaking at 40° C. and 120 rpm for 20-24 hours to obtain a reaction solution.
The molar content of short-chain glycosylated genistein (here the short-chain glycosylated genistein was a mixture of monoglycosylated genistein, diglycosylated genistein and triglycosylated genistein) and long-chain glycosylated genistein (here the long-chain glycosylated genistein was a mixture of tetraglycosylated genistein, pentaglycosylated genistein and hexaglycosylated genistein) in the reaction solution was detected by HPLC, the ratio (%) of the molar content of short-chain glycosylated genistein and long-chain glycosylated genistein in the reaction solution to the molar content of total glycosylated genistein in the reaction solution and the content (g/L) of short-chain glycosylated genistein and long-chain glycosylated genistein in the reaction solution were calculated, and detection results were shown in Tables 1 to 2. A method for detecting the ratio (%) of the content of short-chain glycosylated genistein and long-chain glycosylated genistein in the reaction solution to the content of total glycosylated genistein in the reaction solution by HPLC included that the reaction solution was filtered through a 0.22 μm filter membrane, and an Amethyst C18-H column (4.6*250 mm, Sepax, America) was used for detection (see Table 3 for specific detection conditions). The content of long-chain glycosylated genistein=the molar content of hexaglycosylated genistein*the molecular weight of hexaglycosylated genistein+ the molar content of pentaglycosylated genistein*the molecular weight of pentaglycosylated genistein+ the molar content of tetraglycosylated genistein*the molecular weight of tetraglycosylated genistein, and the content of short-chain glycosylated genistein=the molar content of triglycosylated genistein*the molecular weight of triglycosylated genistein+ the molar content of diglycosylated genistein*the molecular weight of diglycosylated genistein+ the molar content of monoglycosylated genistein*the molecular weight of monoglycosylated genistein.

Data set [4] can be described thus: Effect of reaction temperature on the yield of long-chain glycosylated genistein. The data set is classed as biochemical. The method, then:
On the basis of Example 2, the mutant A156V/L174P/A166Y with the highest specificity to long-chain glycosylated genistein products was selected, and the reaction temperature was changed into 30° C., 35° C., 40° C., 45° C., 50° C., 55° C. and 60° C. separately.
as §1, with “4” for “5”, “1.” for “2.”

As for genistein triglucoside, the “solubility in water, times higher than that of genistein” value in data set [1] is reported as 44,000 times.
Take genistein diglucoside: the “solubility in water, times higher than that of genistein” value in data set [1] is listed as 3,700 times.

B1: A156V/L174P/A166Y: cyclodextrin glucosyltransferase mutant: A156V, L174P and alanine 166 into tyrosine of SEQ ID NO: 1 (protein)
chain: SPDTSVDNKVNFSTDVIYQIVTDRFADGDRTNNPAGDAFSGDRSNLKLYFGGDWQGIIDKINDGYLTGMGVTALWISQPVENITSVIKYSGVNNTSYHGYWARDFKQTNDAFGDFADFQNLIDTAHAHNIKVVIDFAPNHTSPADRDNPGFAENGVLYDNGSLLGYYSNDTAGPFHHNGGTDFSTIEDGIYKNLYDLADINHNNNAMDAYFKSAIDLWLGMGVDGIRFDAVKHMPFGWQKSFVSSIYGGDHPVFTFGEWYLGADQTDGDNIKFANESGMNLLDFEYAQEVREVFRDKTETMKDLYEVLASTESQYDYINNMVTFIDNHDMDRFQVAGSGTRATEQALALTLTSRGVPAIYYGTEQYMTGDGDPNNRAMMTSFNTGTTAYKVIQALAPLRKSNPAIAYGTTTERWVNNDVLIIERKFGSSAALVAINRNSSAAYPISGLLSSLPAGTYSDVLNGLLNGNSITVGSGGAVTNFTLAAGGTAVWQYTAPETSPAIGNVGPTMGQPGNIVTIDGRGFGGTAGTVYFGTTAVTGSGIVSWEDTQIKAVIPKVAAGKTGVSVKTSSGTASNTFKSFNVLTGDQVTVRFLVNQANTNYGTNVYLVGNAAELGSWDPNKAIGPMYNQVIAKYPSWYYDVSVPAGTKLDFKFIKKGGGTVTWEGGGNHTYTTPASGVGTVTVDWQN
modifications: Translated from synthetic DNA
As to B1, the “ratio of the molar content of long-chain glycosylated genistein to the molar content of total glycosylated genistein in the reaction solution” value in data set [2] (FIG. 2, pH 4 (highest)) is given as 70%; in data set [3] it was 40%; in data set [4] (FIG. 1, highest value reached with rising temperature), 49%. For the same molecule, in data set [2] (FIG. 2, pH 4 versus pH 6.5), the “increase of the ratio of long-chain to total glycosylated genistein in comparison with pH 6.5” value amounted to 30%. Further, the “content of long-chain glycosylated genistein in the reaction solution” value in data set [2] (pH 4, 50° C.) is given as 10.2 g/L; in data set [2] (pH 5, 50° C.) it was 7.2 g/L; in data set [2] (pH 6, 50° C.) it was 8.5 g/L; in data set [2] (pH 7, 50° C.) it was 9.7 g/L; in data set [2] (pH 8, 50° C.), 10.3 g/L; in data set [3], 8.5 g/L. Moreover, the “content of long-chain glycosylated genistein in the reaction solution” value in data set [4] (30° C.) is on record as 6.8 g/L; in data set [4] (35° C.), 7.6 g/L; in data set [4] (40° C.), 8.4 g/L; in data set [4] (45° C.) it was 10.1 g/L; in data set [4] (50° C.), 10.0 g/L; in data set [4] (55° C.), 8.9 g/L. Further, in data set [4] (60° C.), the “content of long-chain glycosylated genistein in the reaction solution” value was determined as 5.7 g/L. The “content of short-chain glycosylated genistein in the reaction solution” value in data set [2] (pH 4, 50° C.) was 2.6 g/L; in data set [2] (pH 5, 50° C.) it was 8.8 g/L; in data set [2] (pH 6, 50° C.) it was 8.0 g/L; in data set [2] (pH 7, 50° C.), 5.5 g/L; in data set [2] (pH 8, 50° C.), 3.6 g/L; in data set [3] it was 8.0 g/L. The “content of short-chain glycosylated genistein in the reaction solution” value in data set [4] (30° C.) worked out at 8.9 g/L; in data set [4] (35° C.) it was 8.5 g/L; in data set [4] (40° C.), 8.0 g/L; in data set [4] (45° C.) it was 6.8 g/L; in data set [4] (50° C.), 6.6 g/L; in data set [4] (55° C.), 5.6 g/L. Moreover, the “content of short-chain glycosylated genistein in the reaction solution” value in data set [4] (60° C.) is 3.6 g/L. Moreover, the “yield of long-chain glycosylated genistein” value fell in the range of 10.2 to 10.3 g/L in data set [2] (pH 4 or 8 (highest), 50° C.) and 10.2 to 10.4 g/L in data set [4] (temperature 45-50° C. (highest)). In addition, the “increase of the yield of long-chain glycosylated genistein in comparison with pH 6.5” value in data set [2] (pH 4 or 8 versus pH 6.5) was 20%. The “ratio of the molar content of short-chain glycosylated genistein to the molar content of total glycosylated genistein in the reaction solution” value in data set [3] is recorded as 60%. In data set [3] (in words, from Tables 1 to 2), the “specificity to long-chain glycosylated genistein products in comparison with wild type” value is listed as “significantly improved”. The “increase of the yield of long-chain glycosylated genistein compared with wild-type cyclodextrin glucosyltransferase” value in data set [3] (versus wild type) was determined as 165%. The “increase of the yield of long-chain glycosylated genistein in comparison with 40° C.” value in data set [4] (45-50° C. versus 40° C.) is listed as 21.4-23.8%. Further, the “increase of the ratio of long-chain to total glycosylated genistein in comparison with 40° C.” value in data set [4] (FIG. 1, versus 40° C.) is 21%.

B2: Wild type: cyclodextrin glucosyltransferase with the amino acid sequence shown as SEQ ID NO: 1 (protein)
chain: B1 chain with V156A, Y166A, P174L
modifications: Translated from synthetic DNA
For the molecule B2, in data set [3], the “content of long-chain glycosylated genistein in the reaction solution” value came out at 3.2 g/L, the “content of short-chain glycosylated genistein in the reaction solution” value is on record as 11.4 g/L, the “ratio of the molar content of long-chain glycosylated genistein to the molar content of total glycosylated genistein in the reaction solution” value is listed as 15% and the “ratio of the molar content of short-chain glycosylated genistein to the molar content of total glycosylated genistein in the reaction solution” value is on record as 85%.
